Data published in the supplement of paper PMC9876800.

System: peptide library, one residue held at a place counted from the S/T acceptor
Test: relative phosphorylation of the sub-library (ratio to the mean residue at this position); higher = residue favoured
Details: human
In short: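 Purified recombinant kinases (human or orthologue constructs) were incubated in 384-well plates with biotinylated degenerate peptide sub-libraries, each fixing one residue at one position around a central Ser/Thr. Peptides were at 50 μM, with 50 μM ATP spiked with γ-32P-ATP, for 90 min under kinase-specific conditions. Spots on streptavidin membranes were phosphorimaged and quantified by densitometry. Relative sub-library phosphorylation is a ratio to the mean residue at that position.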

Sequence of STK3, construct: Full length (Q13188 whole entry, looked up): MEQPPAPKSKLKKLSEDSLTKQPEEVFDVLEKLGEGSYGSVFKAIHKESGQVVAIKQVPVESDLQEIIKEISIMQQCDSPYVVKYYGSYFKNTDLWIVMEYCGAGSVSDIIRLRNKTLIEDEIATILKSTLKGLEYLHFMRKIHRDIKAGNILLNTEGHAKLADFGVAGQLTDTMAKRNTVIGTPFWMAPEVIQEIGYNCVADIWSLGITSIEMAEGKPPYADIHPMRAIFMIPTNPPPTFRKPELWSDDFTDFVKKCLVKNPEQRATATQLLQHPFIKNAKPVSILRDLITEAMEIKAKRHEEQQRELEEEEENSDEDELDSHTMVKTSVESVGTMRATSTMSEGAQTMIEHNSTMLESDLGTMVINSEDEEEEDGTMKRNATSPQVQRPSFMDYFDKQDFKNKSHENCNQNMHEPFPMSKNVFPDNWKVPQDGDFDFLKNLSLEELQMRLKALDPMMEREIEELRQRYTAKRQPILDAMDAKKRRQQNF

STK3, construct: Full length (from UniProt Q13188)
relative phosphorylation
Details	at +1	at +2	at +3	at +4	at -1	at -2	at -3	at -4	at -5
A fixed	0.661	0.581	0.858	1.04	0.779	0.875	0.933	0.913	1.03
D fixed	0.346	0.503	0.732	0.903	2.13	1.3	1.5	1.32	1.46
E fixed	0.48	0.55	0.651	0.554	1.02	1.19	1.39	1.42	1.2
F fixed	0.902	0.508	0.855	0.762	0.651	1.64	0.919	1.07	0.976
G fixed	0.728	0.737	1.14	1.45	1.3	0.916	1.15	1.01	0.989
H fixed	0.58	1.48	1.11	1.13	1.13	1.18	0.957	1.07	1.15
I fixed	1.92	0.532	0.872	0.747	0.346	0.457	0.461	0.501	0.601
K fixed	0.419	2.81	1.41	1.26	1.17	0.444	0.517	0.821	0.784
L fixed	2.37	0.687	1.05	0.951	0.917	0.511	0.601	0.598	0.821
M fixed	2.76	0.687	0.886	1.02	0.823	0.877	0.727	0.789	0.817
N fixed	0.589	1.64	1.12	1.09	1.74	1.32	1.21	1.17	1.1
P fixed	0.26	0.733	1.1	1.18	0.706	0.555	1.08	0.926	1.23
Q fixed	0.761	1.28	1.06	1.24	1.26	0.953	1.15	1.32	1.06
R fixed	0.479	2.35	1.45	0.852	0.783	0.472	0.602	0.881	0.704
V fixed	1.09	0.747	0.827	0.871	0.511	0.514	0.64	0.809	0.89
W fixed	1.87	0.549	0.925	1.11	0.819	1.63	1.78	1.12	1.15
Y fixed	0.792	0.626	0.953	0.841	0.909	2.17	1.4	1.26	1.03
pThr fixed	1.04	1.05	0.9	0.916	0.849	1.04	1.18	1.08	1.06
pTyr fixed	0.632	0.544	0.771	0.75	0.599	1.56	1.26	1.2	1.24
